Measured values as given in US20160280799A1 (Ablynx, published 2016).

How the values were obtained:
[1] = target: T1, human MMP-12 catalytic domain (human, UniProt P39900 106-263); assay: dot blot: periplasmic extract on 50 ng human MMP-12 catalytic domain on PVDF membrane, anti-c-myc detection
T1 construct: domain: catalytic domain; also called recombinant human catalytic domain of MMP12; human macrophage elastase

[2] = target: T2, active catalytic domain of MMP 3 (UniProt P08254 100-272); assay: dot blot: periplasmic extract on 50 ng catalytic domain immobilized on Hybond C-extra, anti-c-myc detection
T2 construct: domain: catalytic domain
T2 sequence (P08254 100-272 limits assumed): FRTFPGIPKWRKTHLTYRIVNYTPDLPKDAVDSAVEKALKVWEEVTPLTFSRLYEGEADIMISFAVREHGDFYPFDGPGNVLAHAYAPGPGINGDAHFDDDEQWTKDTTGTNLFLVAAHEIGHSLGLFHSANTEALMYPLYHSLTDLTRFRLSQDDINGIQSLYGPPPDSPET

[3] = target: T3, active catalytic domain of MMP 2 (UniProt P08253 110-450); assay: as above
T3 construct: domain: catalytic domain
T3 sequence (P08253 110-450 limits assumed): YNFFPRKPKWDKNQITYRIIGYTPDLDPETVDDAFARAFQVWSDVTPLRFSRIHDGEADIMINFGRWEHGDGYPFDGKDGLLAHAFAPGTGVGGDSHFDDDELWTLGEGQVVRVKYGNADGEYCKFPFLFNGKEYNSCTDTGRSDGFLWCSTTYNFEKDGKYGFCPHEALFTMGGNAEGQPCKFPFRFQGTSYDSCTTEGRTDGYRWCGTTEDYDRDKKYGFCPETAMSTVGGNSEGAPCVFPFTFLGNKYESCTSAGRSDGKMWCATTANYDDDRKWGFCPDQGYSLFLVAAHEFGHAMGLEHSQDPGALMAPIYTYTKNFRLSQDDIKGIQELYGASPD

[4] = target: active catalytic domain of MMP 13 (UniProt P45452 104-274); assay: as above
[5] = target: T4, active catalytic domain of MMP 7 (UniProt P09237 95-267); assay: as above
T4 construct: domain: catalytic domain
T4 sequence (looked up): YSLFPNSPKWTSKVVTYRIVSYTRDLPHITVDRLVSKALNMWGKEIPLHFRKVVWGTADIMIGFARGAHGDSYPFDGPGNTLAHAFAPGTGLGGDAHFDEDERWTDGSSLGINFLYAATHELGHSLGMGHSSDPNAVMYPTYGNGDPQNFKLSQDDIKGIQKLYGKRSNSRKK

[6] = target: T5, active catalytic domain of MMP 9 (UniProt P14780 107-444); assay: as above
T5 construct: domain: catalytic domain
T5 sequence (P14780 107-444 limits assumed): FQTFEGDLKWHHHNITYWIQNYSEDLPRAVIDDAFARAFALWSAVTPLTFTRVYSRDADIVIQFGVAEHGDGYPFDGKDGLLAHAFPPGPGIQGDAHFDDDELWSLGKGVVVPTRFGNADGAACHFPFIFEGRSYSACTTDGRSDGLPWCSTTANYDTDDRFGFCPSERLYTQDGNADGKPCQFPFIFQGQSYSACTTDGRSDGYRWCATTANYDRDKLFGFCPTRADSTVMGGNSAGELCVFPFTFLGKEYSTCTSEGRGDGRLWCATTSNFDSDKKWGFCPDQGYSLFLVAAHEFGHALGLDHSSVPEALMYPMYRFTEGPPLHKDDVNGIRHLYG

[7] = target: T6, active catalytic domain of MMP 1 (UniProt P03956 100-269); assay: as above
T6 construct: domain: catalytic domain
T6 sequence (looked up): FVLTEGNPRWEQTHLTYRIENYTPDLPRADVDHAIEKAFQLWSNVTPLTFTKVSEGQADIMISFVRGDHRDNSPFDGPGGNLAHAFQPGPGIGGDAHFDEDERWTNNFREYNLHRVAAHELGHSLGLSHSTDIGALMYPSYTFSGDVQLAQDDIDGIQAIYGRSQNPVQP

[8] = target: T7, human EGFR on cells (Her-14 mouse fibroblasts expressing human EGFR; A431 cells) (human, UniProt P00533 25-1210); assay: phage ELISA on Her-14 cells (mouse fibroblasts expressing human EGFR) against parental 3T3 cells, about 10^9 phage particles, anti-M13 gpVIII-HRP, OD 405nm
T7 construct: whole, on cells; also called EGF receptor

human TNF-alpha [9] = target: T8, human TNF-alpha (human, UniProt P01375 77-233); assay: ELISA: biotinylated TNFα captured on neutravidin, detection R42; sample treated with pepsin for 60 min at pH 2
T8 construct: also called TNFα; biotinylated TNF-alpha
T8 sequence (P01375 77-233 limits assumed): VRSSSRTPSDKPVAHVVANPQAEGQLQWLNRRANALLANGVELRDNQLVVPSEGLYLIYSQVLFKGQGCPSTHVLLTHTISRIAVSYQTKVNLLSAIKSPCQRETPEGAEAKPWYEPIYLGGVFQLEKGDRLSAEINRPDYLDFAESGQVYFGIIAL

human TNF-alpha [10] = target: T8, human TNF-alpha; assay: ELISA: biotinylated TNFα captured on neutravidin, detection R42; sample treated with pepsin for 60 min at pH 4
human TNF-alpha [11] = target: T8, human TNF-alpha; assay: ELISA: biotinylated TNFα captured on neutravidin, detection R42
human TNF-alpha [12] = target: T8, human TNF-alpha; assay: ELISA: biotinylated TNFα captured on neutravidin, detection R42; sample treated with pepsin for 60 min at pH 3
[13] = target: T1, human MMP-12 catalytic domain; assay: binding implied by inhibition in the colorimetric MMP-12 assay; selected on active MMP-12 on nitrocellulose

T1 sequence (P39900 106-263 limits assumed): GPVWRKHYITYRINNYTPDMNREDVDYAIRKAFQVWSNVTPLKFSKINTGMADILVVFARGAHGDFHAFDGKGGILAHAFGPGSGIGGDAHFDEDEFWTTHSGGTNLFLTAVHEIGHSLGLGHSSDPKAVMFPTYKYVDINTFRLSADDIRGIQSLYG

B1: MMP-12 P1-26 (VHH)
VHH: QVQLQESGGGLVRAGGSLRLSCVASGRTLSKYRMGWFRQFPGKERELVAEIEWKSSSTWYRDSVKGRFTISRDNAKNTVYLRMNSLKPEDTAVYYCAAATLGEPLVKYTYWGQGTQVTVSS
binding result [1]: binds
binding result [2]: no binding
binding result [3]: no binding
binding result [4]: no binding
binding result [5]: no binding
binding result [6]: no binding
binding result [7]: no binding

B2: EGFR-F11 (VHH)
VHH: QVQLQESGGRLVQAGGSLRLSCAASEHTFRGYAIGWFRQAPGKEREFVSSITYDGTLTNYADSVTGRFTISRDNAKNTVYLQMNSLKPEDTAVYVCAAGYSYRYTTLNQYDSWGQGTQVTVSS
binding result [8]: binds

B3: VHH#3E-His tag (VHH)
VHH: QVQLQESGGGLVQPGGSLRLSCAASGRTFSDHSGYTYTIGWFRQAPKEREFVARIYWSSGNTYYADSVKGRFAISRDIAKNTVDLTMNNLEPEDTAVYYCAARDGIPTSRSVESYNYWGQGTQVTVSS
notes: also called TNF3E; VHH TNF3E
EC50 (read off the curve) (human TNF-alpha [9]): ~0.03 µg/mL
EC50 (read off the curve) (human TNF-alpha [10]): ~0.009 µg/mL
EC50 (read off the curve) (human TNF-alpha [11]): ~0.02 µg/mL
EC50 (read off the curve) (human TNF-alpha [12]): ~0.01 µg/mL

B4: MMP-12 P1-41 (VHH)
VHH: QVQLQDSGGGLVRTGDSLRLSCVVFGGTISTYAMGWFRRAPGKEREFVAAIDASGGFTEYADSVRGRFRIARDNPLSAVYLQMNSLKPEDTAFYYCAADKDRDTVVRFTTTPNEYDYWGQGTQVTVSS
binding result [1]: binds
binding result [2]: no binding
binding result [3]: no binding
binding result [4]: no binding
binding result [5]: no binding
binding result [6]: no binding
binding result [7]: no binding

B5: MMP-12 P1-1 (VHH)
VHH: QVQLQESGGGLVQPGGSLRLSCVASGFTFSDYPMAWVRQAPGKGLEWISVINSGGVNTSYAASVKGRFTISRDNAKNTLFLQMNSLKPEDTAVYYCAKYSLKNEQYWRGQGTQVTVSS
binding result [1]: binds
binding result [2]: no binding
binding result [3]: no binding
binding result [4]: no binding
binding result [5]: no binding
binding result [6]: no binding
binding result [7]: no binding

B6: EGFR-IIIa5 (VHH)
VHH: EVQLVESGGGLVQAGGSLRLSCTASGRTFSSYAMGWFRQTPGKEREFVAAITSSGGSTYYADSVKGRFTISRDNAKSTMYLQMDSLMLDDTSVYYCAADSSRPQYSDSALRRILSLSNSYPYWGQGTQVTVSS
binding result [8]: binds

B7: MMP-12 P1-44 (VHH)
VHH: QVQLQESGGGLVQPGGSLRLSCAASGFTFNNHWLYWVRQAQGKGLEWVSAINPGGSTVYLDSVKGRFTISRGNTKNTLYLQMNSLKSEDTAVYYCTKAMAWATDWDEYDLWGQGTQVTVSS
binding result [1]: binds
binding result [2]: no binding
binding result [3]: no binding
binding result [4]: no binding
binding result [5]: no binding
binding result [6]: no binding
binding result [7]: no binding

B8: EGFR-1.38 (VHH)
VHH: QVQLQDSGGGLVQAGDSLRLSCAASGRSFGGYAMGWFRQAPGKEREFVAAISWSGGSTYYADSLKGRFTISRDNAKNTVYLQMNSLKPEDTALYYCAAGLRPSPNYNHERSYDYWGQGTQVTVSS
binding result [8]: binds

B9: MMP-12 P5-29 (VHH)
VHH: QVQLQESGGGLVQAGGSLRLSCAASGRTFTVYTTGWFRQAPGKEREFVAAIDWSGSSTYYTDSVKGRFTISRDNTKNTVYLQMNSLKPEDTAVYYCAARDAIVGVTDTSGYRYWGQGTQVTVSS
notes: also called clone P5-29
binding result [13]: binds

B10: EGFR-4.21 (VHH)
VHH: EVQLVESGGGLVQAGGSLRLSCAVSGRTFSSMGWFRQAPGKEREFVATINLSGDRTDYADSVKGRFTISRDNPKNTVYLQMDSLEPEDSAVYYCAGTSLYPSNLRYYTLPGTYADWGQGTQVTVSS
binding result [8]: binds

B11: EGFR-B11 (VHH)
VHH: QVQLQDSGGGLVQAGGSLRLSCAASRFSSAQYAIGWFRQAPGKEREGVSYITFSGGPTGYADSVKGRFTVSRDNAKNTVYLQMNSLKPEDTAVYYCAARPYTRPGSMWVSSLYDNWGQGTQVTVSS
binding result [8]: binds
